{
  "source": "paper PMC7736808",
  "about": "“Dual conformational recognition by Z-DNA binding protein is important for the B–Z transition process”",
  "key": {"[1]": {"molecular_target": "T1, GH5* (UniProt P02259, K41G;S42G;R43G;K53A;R95A)", "T1 sequence": "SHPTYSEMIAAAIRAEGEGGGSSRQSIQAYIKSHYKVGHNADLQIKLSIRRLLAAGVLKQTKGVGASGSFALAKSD", "experiment": "MST; 150 mM KCl, pH 7.8; MST at 22 C, 5 nM labeled DNA, 0.5 mg/ml BSA, 0.05% Tween 20; 5 mM HEPES pH 7.5, 20 mM NaCl (Table 2); 20 mM HEPES pH 8.0, 100 mM NaCl (Table 4); 20 mM Tris-HCl pH 7.8, 150 mM KCl (Table 5)", "settings": "protein: recombinant; label: 5'-Alexa647 on strand 1; blunt"}, "[2]": {"molecular_target": "T2, GH5*:α3NADAR1-PW (/ human ADAR1 α3N and β-wing residues, UniProt P02259, K41G;S42G;R43G;K53A;R95A;del65;D66K;L67K;Q68E;K70N;L71R;S72V;I73L;R74Y;R75S;S91P …)", "T2 sequence": "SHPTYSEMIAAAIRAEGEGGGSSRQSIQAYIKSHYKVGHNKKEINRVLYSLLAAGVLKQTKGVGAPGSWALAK", "experiment": "MST; 150 mM KCl, pH 7.8; MST at 22 C, 5 nM labeled DNA, 0.5 mg/ml BSA, 0.05% Tween 20; 5 mM HEPES pH 7.5, 20 mM NaCl (Table 2); 20 mM HEPES pH 8.0, 100 mM NaCl (Table 4); 20 mM Tris-HCl pH 7.8, 150 mM KCl (Table 5)", "settings": "protein: recombinant; chain copies: 2; label: 5'-Alexa647 on strand 1; blunt"}, "[3]": {"molecular_target": "T2, GH5*:α3NADAR1-PW", "experiment": "MST; 100 mM NaCl, pH 8.0; MST at 22 C, 5 nM labeled DNA, 0.5 mg/ml BSA, 0.05% Tween 20; 5 mM HEPES pH 7.5, 20 mM NaCl (Table 2); 20 mM HEPES pH 8.0, 100 mM NaCl (Table 4); 20 mM Tris-HCl pH 7.8, 150 mM KCl (Table 5)", "settings": "protein: recombinant; chain copies: 2; label: 5'-Alexa647 on strand 1; blunt"}, "[4]": {"molecular_target": "vvZαE3L (UniProt P21605)", "experiment": "MST; 20 mM NaCl; text says 20 uM; MST at 22 C, 5 nM labeled DNA, 0.5 mg/ml BSA, 0.05% Tween 20; 5 mM HEPES pH 7.5, 20 mM NaCl (Table 2); 20 mM HEPES pH 8.0, 100 mM NaCl (Table 4); 20 mM Tris-HCl pH 7.8, 150 mM KCl (Table 5)", "settings": "protein: recombinant; label: 5'-Alexa647 on strand 1; blunt"}, "[5]": {"molecular_target": "T3, hZαADAR1 (human, UniProt P55265)", "T3 sequence": "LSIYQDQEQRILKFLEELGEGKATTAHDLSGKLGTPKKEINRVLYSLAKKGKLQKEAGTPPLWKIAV", "experiment": "MST; 20 mM NaCl; text says 1.8 uM; MST at 22 C, 5 nM labeled DNA, 0.5 mg/ml BSA, 0.05% Tween 20; 5 mM HEPES pH 7.5, 20 mM NaCl (Table 2); 20 mM HEPES pH 8.0, 100 mM NaCl (Table 4); 20 mM Tris-HCl pH 7.8, 150 mM KCl (Table 5)", "settings": "protein: recombinant; tags: N-terminal His6, cleaved by thrombin; chain copies: 2; label: 5'-Alexa647 on strand 1; blunt"}},
  "data": [
    {"binder": "B-DNA 21 bp (dsDNA) DNA 1: TATGCAATCGTAATAAACCGT DNA 2: ACGGTTTATTACGATTGCATA", "values": [
      {"measurement": "Kd", "setting": "[1]", "result": "167 ± 50", "unit": "µM"},
      {"measurement": "Kd", "setting": "[2]", "result": "144 ± 16", "unit": "µM"},
      {"measurement": "Kd", "setting": "[3]", "result": "31 ± 2", "unit": "µM"},
      {"measurement": "Kd", "setting": "[4]", "result": "21 ± 0.5", "unit": "µM"},
      {"measurement": "Kd", "setting": "[5]", "result": "2.7 ± 0.5", "unit": "µM"}
    ]}
  ]
}
